Values belong to the molecule of their own block, whether it stands above or below them. No end group written: not given here.
How the values were obtained:
[1] = biological target: human CRF receptor, subtype A, variant 1 (hCRF-RA1), encoded by clone hctCRFR (human) (UniProt P34998); assay: binding to the receptor encoded by hctCRFR in COSM6 cell membranes (competitive radioreceptor assay of Example 3)
[2] = biological target: T1, mouse CRF receptor, subtype B, variant 1 (mCRF-RB1) (mouse, UniProt Q60748 35-411); assay: competitive displacement of 125I-(Nle21,Tyr32)-ovine CRF, membranes of COSM6 cells transfected with pCRF-RB1
T1 construct: Full-length cDNA (431 amino acids) in pcDNA1, transiently expressed in COSM6 cells; also called pCRF-RB1
Protocol: (§1) The reaction was terminated by filtration through GF/C (Whatman) filters, prewetted with 1% BSA, 10 mM HEPES, pH 7.5. The filters were washed 4 times with 1 ml 0.1% BSA, 50 mM Tris, pH 7.5.
(§2) Using the methods described in Example 3, a radioreceptor assay was conducted. Approximately […] of pCRF-RB₁ plasmid DNA was transfected into COSM6 cells using the DEAE dextran method. […] In order to calculate a Kd, the displacement data were analyzed using the Ligand program of Munson and Rodbard (1980), Anal. Biochem., 107:220-239.

[3] = biological target: T2, human CRF receptor, subtype A, variant 1 (hCRF-RA1), encoded by clone hctCRFR (human, UniProt P34998 24-415); assay: pharmacologic specificity of the receptor of SEQ ID NO:2
T2 construct: Transiently expressed in COSM6 cells; Clone hctCRFR (ATCC 75474) and clone CRF-R1 are both said to encode hCRF-RA1; also called CRF-R1; hctCRF receptor
T2 sequence: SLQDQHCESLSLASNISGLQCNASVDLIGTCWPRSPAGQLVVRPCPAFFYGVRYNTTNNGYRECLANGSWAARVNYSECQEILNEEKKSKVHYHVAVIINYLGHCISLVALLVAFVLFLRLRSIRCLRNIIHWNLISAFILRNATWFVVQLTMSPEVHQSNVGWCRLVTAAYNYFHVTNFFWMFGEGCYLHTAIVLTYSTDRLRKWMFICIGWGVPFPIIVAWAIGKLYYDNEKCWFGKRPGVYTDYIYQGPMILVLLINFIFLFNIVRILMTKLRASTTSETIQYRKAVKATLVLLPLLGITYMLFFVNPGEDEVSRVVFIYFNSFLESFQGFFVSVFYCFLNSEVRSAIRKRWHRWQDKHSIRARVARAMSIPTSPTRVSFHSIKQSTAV

[4] = biological target: T1, mouse CRF receptor, subtype B, variant …; assay: competitive displacement of 125I-(Nle21,Tyr32)-ovine CRF, membranes of COSM6 cells transfected with pCRF-RB1, Ligand program, six experiments
Protocol: as §1, §2

T1 sequence (Q60748 other isoform, or with tags, fused parts or gaps mutant limits assumed): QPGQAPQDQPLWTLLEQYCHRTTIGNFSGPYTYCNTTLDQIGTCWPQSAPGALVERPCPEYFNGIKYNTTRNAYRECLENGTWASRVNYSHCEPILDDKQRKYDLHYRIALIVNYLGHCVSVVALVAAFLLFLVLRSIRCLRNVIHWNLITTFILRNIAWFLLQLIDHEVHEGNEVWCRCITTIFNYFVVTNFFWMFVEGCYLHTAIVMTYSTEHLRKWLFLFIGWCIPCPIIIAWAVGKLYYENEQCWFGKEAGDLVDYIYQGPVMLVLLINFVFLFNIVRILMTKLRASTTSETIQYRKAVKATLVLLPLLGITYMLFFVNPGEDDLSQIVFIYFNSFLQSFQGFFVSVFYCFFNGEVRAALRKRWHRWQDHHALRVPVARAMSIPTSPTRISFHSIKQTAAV

- binding result [2]: no binding
B2: hGRF(1-40)OH (peptide, UniProt P01286 32-71, looked up)
peptide: YADAIFTNSYRKVLGQLSARKLLQDIMSRQQGESNQERGA-OH
notes: range 1-40; also called growth hormone releasing factor

- Kd [4]: ~1.3 nM
B3: rat/human corticotropin-releasing factor (r/h CRF) (ligand, UniProt P06850 154-194, looked up)
peptide: SEEPPISLDLTFHLLREVLEMARAEQLAQQAHSNRKLMEII
notes: mature; The peptide in the assay is the mature 41-residue CRF; also called human/rat CRF; native r/h CRF

Further lines, the molecule ahead of its results:

Molecule: CRF antagonist a-helical (9-41) CRF (peptide)
- Kd [1]: 13 nM

B1: vasoactive intestinal peptide (VIP) (peptide, UniProt P01282 125-152, looked up)
peptide: HSDAVFTDNYTRLRKQMAVKKYLNSILN
notes: also called vasoactive intestinal polypeptide
- binding result [2]: no binding

Molecule: QGPPISIDLSLELLRKMIEIEKQEKEKQQAANNRLLLDTI (ligand, UniProt P01144 1-40, looked up) [sauvagine]
- binding result [3]: binds

Source: patent US20040039173A1 (SALK INSTITUTE FOR BIOLOGICAL STUDIES, published 2004)
